Experimental findings from patent US20040247614A1 (J DAVID GLADSTONE INSTITUTES, published 2004) are described below.

The target in this assay is T1, GST alone (UniProt P08515 1-218 = GST).
T1 construct: Control in the GST pulldown
Description: GST pulldown, immunoblot with anti-Tat mAb. (In general: A western blot detects proteins with antibodies after separation by electrophoresis.)

T1 sequence (P08515 whole entry): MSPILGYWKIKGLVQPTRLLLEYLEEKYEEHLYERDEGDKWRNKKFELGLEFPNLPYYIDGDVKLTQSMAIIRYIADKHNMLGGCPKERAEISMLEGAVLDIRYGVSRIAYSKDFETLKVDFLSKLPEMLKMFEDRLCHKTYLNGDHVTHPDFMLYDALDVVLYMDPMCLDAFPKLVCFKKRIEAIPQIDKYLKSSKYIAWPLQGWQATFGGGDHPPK

B1: synthetic unacetylated Tat (other)
chain: MEPVDPRLEPWKHPGSQPKTACTTCYCKKCCFHCQVCFTTKALGISYGRKKRRQRRRPPQGSQTHQVSLSKQ
notes: range 1-72; also called nonacetylated Tat
With B1, the binding result is “no binding”.

B2: synthetic Tat protein containing a single acetylated lysine at position 50 (AcTat) (other)
chain: MEPVDPRLEPWKHPGSQPKTACTTCYCKKCCFHCQVCFTTKALGISYGRKKRRQRRRPPQGSQTHQVSLSKQ
modifications: acetylated lysine at position 50 (K50)
notes: range 1-72; also called acetylated Tat; K50-acetylated Tat
As to B2, the binding result is listed as “no binding”.
